In one experiment the target is T1, human IGFBP-1 (human, UniProt P08833 26-259).
T1 construct: biotinylated in the ELISA formats; amine-coupled to the chip in peptide kinetics
T1 sequence (looked up): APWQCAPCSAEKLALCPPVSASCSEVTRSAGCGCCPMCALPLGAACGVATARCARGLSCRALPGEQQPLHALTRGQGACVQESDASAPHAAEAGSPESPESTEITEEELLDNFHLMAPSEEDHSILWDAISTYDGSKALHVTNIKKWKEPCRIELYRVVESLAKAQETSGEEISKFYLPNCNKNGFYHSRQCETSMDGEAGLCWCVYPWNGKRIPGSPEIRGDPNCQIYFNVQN
Description: competitive phage ELISA.

In experiment [1] the target is T2, recombinant human IGFBP-3 (human, UniProt P17936 28-291).
T2 construct: biotinylated and held on a streptavidin chip in the ALS experiment
Description: competitive phage ELISA.

T2 sequence (P17936 28-291 limits assumed): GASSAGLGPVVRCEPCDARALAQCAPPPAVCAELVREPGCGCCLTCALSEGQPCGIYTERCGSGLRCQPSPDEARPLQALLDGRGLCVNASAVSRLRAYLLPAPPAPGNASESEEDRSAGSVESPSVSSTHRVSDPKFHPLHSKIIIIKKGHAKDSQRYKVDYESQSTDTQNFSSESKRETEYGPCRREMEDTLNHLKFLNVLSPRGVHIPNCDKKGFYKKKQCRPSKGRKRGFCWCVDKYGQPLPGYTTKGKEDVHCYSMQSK

In the case of “D45A IGF-1 (G1S-A70V background) on phage (from UniProt P69168 267-424) (ligand)”, the half-inhibitory concentration (IC50) in the experiment with human IGFBP-1 turned out to be 4.7 nM; in experiment [1] it was 0.69 nM. Besides, the values for the relative IC50 (mut/G1S-A70V) (with human IGFBP-1; in experiment [1]) were 0.6 and 0.9, respectively.

In the case of “D53A IGF-1 (G1S-A70V background) on phage (from UniProt P69168 267-424) (ligand)”, in the experiment with human IGFBP-1, the IC50 turned out to be 15.3 nM and the relative IC50 (mut/G1S-A70V) amounted to 1.9. Besides, in experiment [1], the IC50 amounted to 1.05 nM and the relative IC50 (mut/G1S-A70V) amounted to 1.2.

Turning to “E3A IGF-1 (G1S-A70V background) on phage (from UniProt P69168 267-424) (ligand)”, the IC50 with human IGFBP-1 turned out to be 278 nM; in experiment [1] it was 1.05 nM. For the same substance, the results for the relative IC50 (mut/G1S-A70V) (with human IGFBP-1; in experiment [1]) were 33.9 and 1.4, respectively.

Take “E9A IGF-1 (G1S-A70V background) on phage (from UniProt P69168 267-424) (ligand)”: in the experiment with human IGFBP-1, the IC50 came to 8.6 nM and the relative IC50 (mut/G1S-A70V) came to 1. Moreover, in experiment [1], the IC50 is 1.32 nM and the relative IC50 (mut/G1S-A70V) was 1.8.

For “E46A IGF-1 (G1S-A70V background) on phage (from UniProt P69168 267-424) (ligand)”, the IC50 with human IGFBP-1 was 7.9 nM; in experiment [1], 0.94 nM. In addition, the relative IC50 (mut/G1S-A70V) in the experiment with human IGFBP-1 is 1; in experiment [1] it was 1.3.

In the experiment with human IGFBP-1, “E58A IGF-1 (G1S-A70V background) on phage (from UniProt P69168 267-424) (ligand)” had an IC50 of 11.9 nM and a relative IC50 (mut/G1S-A70V) of 1.5. In addition, in experiment [1], the IC50 was 1.03 nM and the relative IC50 (mut/G1S-A70V) turned out to be 1.4.

Take “F49A IGF-1 (G1S-A70V background) on phage (from UniProt P69168 267-424) (ligand)”: in the experiment with human IGFBP-1, the IC50 is more than 1000 nM and the relative IC50 (mut/G1S-A70V) was more than 100. Moreover, in experiment [1], the IC50 worked out at 2.72 nM and the relative IC50 (mut/G1S-A70V) was 3.6.

As to “G7A IGF-1 (G1S-A70V background) on phage (from UniProt P69168 267-424) (ligand)”, the IC50 is more than 1000 nM in the experiment with human IGFBP-1 and 4.58 nM in experiment [1]. Moreover, the relative IC50 (mut/G1S-A70V) in the experiment with human IGFBP-1 was more than 100; in experiment [1], 6.1.

Take “G30A IGF-1 (G1S-A70V background) on phage (from UniProt P69168 267-424) (ligand)”: in the experiment with human IGFBP-1, the 50% inhibitory concentration (IC50) was determined as 7.1 nM and the relative IC50 (mut/G1S-A70V) came out at 0.9. For the same substance, in experiment [1], the IC50 is 0.58 nM and the relative IC50 (mut/G1S-A70V) was found to be 0.8.

In the experiment with human IGFBP-1, “G32A IGF-1 (G1S-A70V background) on phage (from UniProt P69168 267-424) (ligand)” had an IC50 of 10.9 nM and a relative IC50 (mut/G1S-A70V) of 1.3. Moreover, in experiment [1], the IC50 was found to be 0.76 nM and the relative IC50 (mut/G1S-A70V) worked out at 1.

In the experiment with human IGFBP-1, “G42A IGF-1 (G1S-A70V background) on phage (from UniProt P69168 267-424) (ligand)” yielded an IC50 of 15.7 nM and a relative IC50 (mut/G1S-A70V) of 1.9. In addition, in experiment [1], the IC50 was 0.53 nM and the relative IC50 (mut/G1S-A70V) is 0.7.

“I43A IGF-1 (G1S-A70V background) on phage (from UniProt P69168 267-424) (ligand)”: in the experiment with human IGFBP-1, the IC50 came out at 31.3 nM and the relative IC50 (mut/G1S-A70V) is 3.8. Moreover, in experiment [1], the concentration for half-maximal inhibition (IC50) amounted to 1.17 nM and the relative IC50 (mut/G1S-A70V) was determined as 1.6.

With “K65A IGF-1 (G1S-A70V background) on phage (from UniProt P69168 267-424) (ligand)”, the IC50 with human IGFBP-1 was found to be 12.4 nM; in experiment [1] it was 0.69 nM. Also, the values for the relative IC50 (mut/G1S-A70V) (in the experiment with human IGFBP-1; in experiment [1]) were 1.5 and 0.9, respectively.

With “K68A IGF-1 (G1S-A70V background) on phage (from UniProt P69168 267-424) (ligand)”, in the experiment with human IGFBP-1, the IC50 was 10.5 nM and the relative IC50 (mut/G1S-A70V) came to 1.3. For the same substance, in experiment [1], the IC50 amounted to 0.76 nM and the relative IC50 (mut/G1S-A70V) was 1.

In the experiment with human IGFBP-1, “L5A IGF-1 (G1S-A70V background) on phage (from UniProt P69168 267-424) (ligand)” showed an IC50 of 55.3 nM and a relative IC50 (mut/G1S-A70V) of 6.7. In addition, in experiment [1], the IC50 turned out to be 1.53 nM and the relative IC50 (mut/G1S-A70V) came to 2.

For the substance “L54A IGF-1 (G1S-A70V background) on phage (from UniProt P69168 267-424) (ligand)”, the IC50 turned out to be 23.1 nM with human IGFBP-1 and 1.83 nM in experiment [1]. Further, the relative IC50 (mut/G1S-A70V) in the experiment with human IGFBP-1 turned out to be 2.8; in experiment [1], 2.4.

In the experiment with human IGFBP-1, “L57A IGF-1 (G1S-A70V background) on phage (from UniProt P69168 267-424) (ligand)” displayed an IC50 of 21.8 nM and a relative IC50 (mut/G1S-A70V) of 2.7. In addition, in experiment [1], the 50% inhibitory concentration (IC50) was determined as 1.78 nM and the relative IC50 (mut/G1S-A70V) came out at 2.4.

Turning to “L64A IGF-1 (G1S-A70V background) on phage (from UniProt P69168 267-424) (ligand)”, the figures for the IC50 (with human IGFBP-1; in experiment [1]) were 12.1 nM and 0.93 nM, respectively. Moreover, the relative IC50 (mut/G1S-A70V) with human IGFBP-1 is 1.5; in experiment [1] it was 1.2.

In the experiment with human IGFBP-1, “M59A IGF-1 (G1S-A70V background) on phage (from UniProt P69168 267-424) (ligand)” had an IC50 of 13.1 nM and a relative IC50 (mut/G1S-A70V) of 1.6. For the same substance, in experiment [1], the concentration for half-maximal inhibition (IC50) worked out at 0.74 nM and the relative IC50 (mut/G1S-A70V) came to 1.

In the experiment with human IGFBP-1, “P63A IGF-1 (G1S-A70V background) on phage (from UniProt P69168 267-424) (ligand)” returned an IC50 of more than 1000 nM and a relative IC50 (mut/G1S-A70V) of more than 100. Moreover, in experiment [1], the IC50 is more than 100 nM and the relative IC50 (mut/G1S-A70V) was more than 100.

Regarding “P66A IGF-1 (G1S-A70V background) on phage (from UniProt P69168 267-424) (ligand)”, the IC50 was 9.4 nM with human IGFBP-1 and 0.57 nM in experiment [1]. Besides, the relative IC50 (mut/G1S-A70V) in the experiment with human IGFBP-1 turned out to be 1.1; in experiment [1], 0.8.

In the experiment with human IGFBP-1, “Q40A IGF-1 (G1S-A70V background) on phage (from UniProt P69168 267-424) (ligand)” gave an IC50 of 10.2 nM and a relative IC50 (mut/G1S-A70V) of 1.2. In addition, in experiment [1], the IC50 was 0.56 nM and the relative IC50 (mut/G1S-A70V) came to 0.7.

In the experiment with human IGFBP-1, “R37A IGF-1 (G1S-A70V background) on phage (from UniProt P69168 267-424) (ligand)” registered an IC50 of 12.3 nM and a relative IC50 (mut/G1S-A70V) of 1.5. In addition, in experiment [1], the IC50 stood at 0.75 nM and the relative IC50 (mut/G1S-A70V) stood at 1.

In the experiment with human IGFBP-1, “R50A IGF-1 (G1S-A70V background) on phage (from UniProt P69168 267-424) (ligand)” had an IC50 of 16.2 nM and a relative IC50 (mut/G1S-A70V) of 2. Further, in experiment [1], the IC50 was 0.64 nM and the relative IC50 (mut/G1S-A70V) came out at 0.9.

With “R55A IGF-1 (G1S-A70V background) on phage (from UniProt P69168 267-424) (ligand)”, the IC50 is 9 nM with human IGFBP-1 and 0.66 nM in experiment [1]. For the same substance, the values for the relative IC50 (mut/G1S-A70V) (with human IGFBP-1; in experiment [1]) were 1.1 and 0.9, respectively.

On to “R56A IGF-1 (G1S-A70V background) on phage (from UniProt P69168 267-424) (ligand)”, for which, in the experiment with human IGFBP-1, the IC50 was determined as 13.1 nM and the relative IC50 (mut/G1S-A70V) was determined as 1.6. In experiment [1], the IC50 was determined as 1 nM and the relative IC50 (mut/G1S-A70V) is 1.3.

For “S1G IGF-1 (single mutant of G1S-A70V) on phage (from UniProt P69168 267-424) (ligand)”, in the experiment with human IGFBP-1, the IC50 worked out at 11.2 nM and the relative IC50 (mut/G1S-A70V) was 1.4. For the same substance, in experiment [1], the IC50 worked out at 0.99 nM and the relative IC50 (mut/G1S-A70V) was determined as 1.3.

Take “S33A IGF-1 (G1S-A70V background) on phage (from UniProt P69168 267-424) (ligand)”: in the experiment with human IGFBP-1, the IC50 worked out at 9.1 nM and the relative IC50 (mut/G1S-A70V) was 1.1. In experiment [1], the 50% inhibitory concentration (IC50) amounted to 1.01 nM and the relative IC50 (mut/G1S-A70V) was determined as 1.3.

In the experiment with human IGFBP-1, “S34A IGF-1 (G1S-A70V background) on phage (from UniProt P69168 267-424) (ligand)” displayed an IC50 of 9.5 nM and a relative IC50 (mut/G1S-A70V) of 1.2. Besides, in experiment [1], the IC50 stood at 1.65 nM and the relative IC50 (mut/G1S-A70V) worked out at 2.2.

Turning to “S35A IGF-1 (G1S-A70V background) on phage (from UniProt P69168 267-424) (ligand)”, the IC50 with human IGFBP-1 was determined as 11.7 nM; in experiment [1] it was 0.47 nM. The relative IC50 (mut/G1S-A70V) with human IGFBP-1 amounted to 1.4; in experiment [1], 0.6.

For “S51A IGF-1 (G1S-A70V background) on phage (from UniProt P69168 267-424) (ligand)”, in the experiment with human IGFBP-1, the IC50 was 13.4 nM and the relative IC50 (mut/G1S-A70V) worked out at 1.6. In experiment [1], the IC50 came to 0.65 nM and the relative IC50 (mut/G1S-A70V) turned out to be 0.9.

With “S69A IGF-1 (G1S-A70V background) on phage (from UniProt P69168 267-424) (ligand)”, in the experiment with human IGFBP-1, the IC50 was determined as 12.8 nM and the relative IC50 (mut/G1S-A70V) is 1.6. Further, in experiment [1], the IC50 was 0.71 nM and the relative IC50 (mut/G1S-A70V) was found to be 1.2.

Consider “T4A IGF-1 (G1S-A70V background) on phage (from UniProt P69168 267-424) (ligand)”, for which the IC50 turned out to be 19.4 nM with human IGFBP-1 and 0.8 nM in experiment [1]. In addition, the relative IC50 (mut/G1S-A70V) in the experiment with human IGFBP-1 amounted to 2.4; in experiment [1], 1.1.

These data come from US20030211992A1 (published 2003).
